Results reported in paper PMC8755724, “Single particle cryo-EM structure of the outer hair cell motor protein prestin” (Nature Communications, 2022).

Target: the molecule itself
Assay: cryo-EM structure; single-particle cryo-EM of detergent-solubilised prestin (extracted in digitonin, purified in GDN), about 2 mg/ml, 10 mM HEPES, 200 mM NaCl, 0.02% GDN, pH 7.4; C2 symmetry imposed; 3.6 Å

B1: full-length prestin from gerbil (Meriones unguiculatus) tagged at its C terminus with enhanced yellow fluorescent protein (EYFP) (natural protein, UniProt Q9JKQ2 1-744, looked up)
chain: MDHAEENEIPVATQKYHVERPIFSHPVLQERLHVKDKVSESIGDKLKQAFTCTPKKIRNIIYMFLPITKWLPAYKFKEYVLGDLVSGISTGVLQLPQGLAFAMLAAVPPVFGLYSSFYPVIMYCFFGTSRHISIGPFAVISLMIGGVAVRLVPDDIVIPGGVNATNGTEARDALRVKVAMSVTLLSGIIQFCLGVCRFGFVAIYLTEPLVRGFTTAAAVHVFTSMLKYLFGVKTKRYSGIFSVVYSTVAVLQNVKNLNVCSLGVGLMVFGLLLGGKEFNERFKEKLPAPIPLEFFAVVMGTGISAGFNLHESYSVDVVGTLPLGLLPPANPDTSLFHLVYVDAIAIAIVGFSVTISMAKTLANKHGYQVDGNQELIALGICNSIGSLFQTFSISCSLSRSLVQEGTGGKTQLAGCLASLMILLVILATGFLFESLPQAVLSAIVIVNLKGMFMQFSDLPFFWRTSKIELTIWLTTFVSSLFLGLDYGLITAVIIALLTVIYRTQSPSYKVLGQLPDTDVYIDIDAYEEVKEIPGIKIFQINAPIYYANSDLYSNALKRKTGVNPALIMGARRKAMRKYAKEVGNANIANAAVVKVDGEVDGENATKPEEEDDEVKYPPIVIKTTFPEELQRFMPQTENVHTIILDFTQVNFIDSVGVKTLAVMVKEYGDVGIYVYLAGCSPQVVNDLTRNRFFENPALKELLFHSIHDAVLGSHVREAMAEQEASAPPPQDDMEPNATPTTPEA
notes: prestin (Slc26a5), gerbil (Meriones unguiculatus), GenBank AF230376, full-length cDNA; the model is built to residue A726; also called Slc26a5; prestin-YFP; not shown: EYFP, C-terminal, kept
stoichiometry N: 2
